The values that follow come from paper PMC4697752.

The labels stand for the following.
B1: Matrix metalloproteinase-9 (MMP-9): mS38 (protein)
parent chain: MSLWQPLVLVLLVLGCCFAAPRQRQSTLVLFPGDLRTNLTDRQLAEEYLYRYGYTRVAEMRGESKSLGPALLLLQKQLSLPETGELDSATLKAMRTPRCGVPDLGRFQTFEGDLKWHHHNITYWIQNYSEDLPRAVIDDAFARAFALWSAVTPLTFTRVYSRDADIVIQFGVAEHGDGYPFDGKDGLLAHAFPPGPGIQGDAHFDDDELWSLGKGVVVPTRFGNADGAACHFPFIFEGRSYSACTTDGRSDGLPWCSTTANYDTDDRFGFCPSERLYTQDGNADGKPCQFPFIFQGQSYSACTTDGRSDGYRWCATTANYDRDKLFGFCPTRADSTVMGGNSAGELCVFPFTFLGKEYSTCTSEGRGDGRLWCATTSNFDSDKKWGFCPDQGYSLFLVAAHEFGHALGLDHSSVPEALMYPMYRFTEGPPLHKDDVNGIRHLYGPRPEPEPRPPTTTTPQPTAPPTVCPTGPPTVHPSERPTAGPTGPPSAGPTGPPTAGPSTATTVPLSPVDDACNVNIFDAIAEIGNQLYLFKDGKYWRFSEGRGSRPQGPFLIADKWPALPRKLDSVFEERLSKKLFFFSGRQVWVYTGASVLGPRRLDKLGLGADVAQVTGALRSGRGKMLLFSGRRLWRFDVKAQMVDPRSASEVDRMFPGVPLDTHDVFQYREKAYFCQDRFYWRVSSRSELNQVDQVGYVTYDILQCPED
B2: Matrix metalloproteinase-9 (MMP-9): mS38/N120S (protein)
parent chain: MSLWQPLVLVLLVLGCCFAAPRQRQSTLVLFPGDLRTNLTDRQLAEEYLYRYGYTRVAEMRGESKSLGPALLLLQKQLSLPETGELDSATLKAMRTPRCGVPDLGRFQTFEGDLKWHHHNITYWIQNYSEDLPRAVIDDAFARAFALWSAVTPLTFTRVYSRDADIVIQFGVAEHGDGYPFDGKDGLLAHAFPPGPGIQGDAHFDDDELWSLGKGVVVPTRFGNADGAACHFPFIFEGRSYSACTTDGRSDGLPWCSTTANYDTDDRFGFCPSERLYTQDGNADGKPCQFPFIFQGQSYSACTTDGRSDGYRWCATTANYDRDKLFGFCPTRADSTVMGGNSAGELCVFPFTFLGKEYSTCTSEGRGDGRLWCATTSNFDSDKKWGFCPDQGYSLFLVAAHEFGHALGLDHSSVPEALMYPMYRFTEGPPLHKDDVNGIRHLYGPRPEPEPRPPTTTTPQPTAPPTVCPTGPPTVHPSERPTAGPTGPPSAGPTGPPTAGPSTATTVPLSPVDDACNVNIFDAIAEIGNQLYLFKDGKYWRFSEGRGSRPQGPFLIADKWPALPRKLDSVFEERLSKKLFFFSGRQVWVYTGASVLGPRRLDKLGLGADVAQVTGALRSGRGKMLLFSGRRLWRFDVKAQMVDPRSASEVDRMFPGVPLDTHDVFQYREKAYFCQDRFYWRVSSRSELNQVDQVGYVTYDILQCPED
B3: Matrix metalloproteinase-9 (MMP-9): N120S (protein)
parent chain: MSLWQPLVLVLLVLGCCFAAPRQRQSTLVLFPGDLRTNLTDRQLAEEYLYRYGYTRVAEMRGESKSLGPALLLLQKQLSLPETGELDSATLKAMRTPRCGVPDLGRFQTFEGDLKWHHHNITYWIQNYSEDLPRAVIDDAFARAFALWSAVTPLTFTRVYSRDADIVIQFGVAEHGDGYPFDGKDGLLAHAFPPGPGIQGDAHFDDDELWSLGKGVVVPTRFGNADGAACHFPFIFEGRSYSACTTDGRSDGLPWCSTTANYDTDDRFGFCPSERLYTQDGNADGKPCQFPFIFQGQSYSACTTDGRSDGYRWCATTANYDRDKLFGFCPTRADSTVMGGNSAGELCVFPFTFLGKEYSTCTSEGRGDGRLWCATTSNFDSDKKWGFCPDQGYSLFLVAAHEFGHALGLDHSSVPEALMYPMYRFTEGPPLHKDDVNGIRHLYGPRPEPEPRPPTTTTPQPTAPPTVCPTGPPTVHPSERPTAGPTGPPSAGPTGPPTAGPSTATTVPLSPVDDACNVNIFDAIAEIGNQLYLFKDGKYWRFSEGRGSRPQGPFLIADKWPALPRKLDSVFEERLSKKLFFFSGRQVWVYTGASVLGPRRLDKLGLGADVAQVTGALRSGRGKMLLFSGRRLWRFDVKAQMVDPRSASEVDRMFPGVPLDTHDVFQYREKAYFCQDRFYWRVSSRSELNQVDQVGYVTYDILQCPED

The nature of this data set: secreted mCherry-tagged MMP-9, microplate reader. The conditions noted are these: glycan lost; control: wild type.
For B1, the expression_or_secretion entry is “no change”.
With B2 the entry was “decreases”; with B3, “decreases”.
